Assay in all cases: SEC; purified enzymes that were not crosslinked, on Superdex 200; native mass estimated from the elution
In experiment [1] the target is SCR1 (Candida parapsilosis CCTCC M203011).
Experiment [2] concerns the target wild-type (S)-carbonyl reductase II (Candida parapsilosis CCTCC M203011).
Experiment [3] concerns the target SCR3 (Candida parapsilosis CCTCC M203011).
Experiment [4] deals with ADHR (Lactobacillus kefiri DSM 20587).

One may read the stoichiometry N as the number of molecules, sites or subunits per partner or assembly.

On to SCR1 (enzyme), for which the stoichiometry N in experiment [1] was 4.

For the substance “wild-type (S)-carbonyl reductase II (enzyme)”, the stoichiometry N in experiment [2] is 4.

As to SCR3 (enzyme), the stoichiometry N in experiment [3] was 4.

As to ADHR (enzyme), in experiment [4], the stoichiometry N is 4.

Values taken from publication PMC5465079.
